Data reported in patent US20240239894A1, “THERAPEUTIC BINDING MOLECULES” (MedImmune Limited, priority 2020, published 2024).
“Also recorded” adds a separate entry of the source.

Assays:
[1] = system: HEK 293 Jump In TREX cells stably expressing cynomolgus monkey B7-H4; experiment: Flow cytometry binding; assay type: cell-based
Description: (§1) Flow cytometry was used to measure binding of antibody E02-INT to non-transduced HEK 293 Jump In TREX cells and to HEK 293 Jump In TREX cells stably expressing human, murine, or cynomolgus monkey B7-H4.

[2] = system: HEK 293 Jump In TREX cells stably expressing murine B7-H4; experiment: Flow cytometry binding; assay type: cell-based; conditions: listed as E02-INT
Description: as §1

[3] = system: non-transduced HEK 293 Jump In TREX cells; experiment: Flow cytometry binding; assay type: cell-based; conditions: B7-H4-negative
Description: as §1

[4] = system: HEK 293 Jump In TREX cells stably expressing human B7-H4; experiment: Flow cytometry binding; assay type: cell-based
Description: as §1

MX-1 cells = experiment: Flow cytometry binding; assay type: cell-based, human; conditions: endogenously-expressed B7-H4
Description: Flow cytometry was used to measure binding of antibody E02-INT and E02-GL-SG3932 to the human breast cancer cell lines MX-1 and MDA-MB-468, and to engineered HT29 colon cancer cells stably expressing human B7-H4.

SK-BR-3 cells = experiment: Flow cytometry binding; assay type: cell-based, human; conditions: 31, 156 and 78 ng/ml; compared with 1D11
Protocol: (§2) Cells were detached from tissue culture flasks by accutase (Gibco, Paisley, UK), pelleted by centrifugation, and resuspended in ice cold DPBS (Gibco, Paisley, UK). Viable cells were counted by trypan blue exclusion using a haemocytometer. Cell densities were adjusted to 5×10^6 cells/mL in DPBS. 100 μL of the cell suspension (5×10^5 cells) was added to 96-well V-bottomed plates and placed on ice. Then, the cells were incubated with Live/Dead fixable violet stain (ThermoFisher Scientific, Loughborough, UK) for 20 minutes on ice. Following a wash with flow cytometry buffer (eBiosciences, Hatfield, UK), the cells were incubated on ice for 30 minutes in 100 μL flow cytometry buffer alone (unstained control cells) or supplemented with AF647-labelled anti-B7H4 antibodies (e.g. E02-GL or 1D11) or isotype R347 at a concentration ranging from 10 µg/ml to 78 ng/ml. […] FlowJo cytometry analysis software (Treestar, Ashland, OR, USA) was used to quantify antibody binding to cells as follows. Live, single cells were gated based on forwards scatter, side scatter, and Live/Dead violet fluorescence intensity and the AF647 geometric mean fluorescence intensity (MFI) was determined. […]

[5] = system: hB7-H4 expressing HT29 cells; experiment: Flow cytometry binding; assay type: cell-based, human; conditions: 31, 156 and 78 ng/ml; compared with 1D11
Protocol: as §2

HCC1569 = experiment: E02-GL MESF on cell line; assay type: cell-based
HT29-huB7-H4 Clone 26 = experiment: Live cell imaging internalization; assay type: cell-based, human; conditions: 5 μg/mL Alexa Fluor 568 conjugate
Protocol: (§3) The internalization and intracellular trafficking properties of antibody E02-INT was evaluated using a quantitative live cell imaging assay in MX-1 human breast cancer cells and HT29 huB7-H4 Clone 26 human colon cancer cells overexpressing B7-H4.

MX-1 = experiment: Live cell imaging internalization; assay type: cell-based, human; conditions: 5 μg/mL Alexa Fluor 568 conjugate
Protocol: as §3

HCC1954 tumour xenograft = experiment: gamma H2AX immunohistochemistry in tumour xenograft; assay type: in vivo; conditions: up to 10 days following treatment
Protocol: Tumour xenograft models were generated (using HCC1954 cells), and treated with E02-GL-SG3249. “E02-GL” antibody has the CDR/VH sequences (e.g. corresponds to) of ZY0EQD-E02 (“GL” means the antibody has been germlined).
Immunohistochemistry was then performed to determine gamma H2AX (marker of double strand breaks) following treatment.

T330 = experiment: PDX model; assay type: in vivo; conditions: T330, Breast (Triple negative); 0.3 mg/kg vs vehicle
Description: (§4) Patient derived xenograft models were generated using cancer cell lines with varying levels of B7-H4 expression, as outlined in Table 16. […] “E02-GL” antibody has the CDR/VH sequences (e.g. corresponds to) of ZY0EQD-E02 (“GL” means the antibody has been germlined).

CTG-0992 = experiment: PDX model; assay type: in vivo; conditions: CTG-0992, Ovarian; 0.3 mg/kg vs vehicle
Description: as §4

HBCx-9 = experiment: PDX model; assay type: in vivo; conditions: HBCx-9, Breast (Triple negative); 0.3 mg/kg vs vehicle
Description: as §4

CTG-012 = experiment: PDX model; assay type: in vivo; conditions: CTG-012, Breast (Triple negative); 0.3 mg/kg vs vehicle
Description: as §4

T272 = experiment: PDX model; assay type: in vivo; conditions: T272, Breast (HR+); 0.3 mg/kg vs vehicle
Description: as §4

CTG-1106 = experiment: PDX model; assay type: in vivo; conditions: CTG-1106, Breast (Triple negative); 0.3 mg/kg vs vehicle
Description: as §4

HBCx-11 = experiment: PDX model; assay type: in vivo; conditions: HBCx-11, Breast (Triple negative); 0.3 mg/kg vs vehicle
Description: as §4

CTG-1086 = experiment: PDX model; assay type: in vivo; conditions: CTG-1086, Ovarian; 0.3 mg/kg vs vehicle
Description: as §4

T168 = experiment: PDX model; assay type: in vivo; conditions: T168, Breast (HR+); 0.3 mg/kg vs vehicle
Description: as §4

HBCx-10 = experiment: PDX model; assay type: in vivo; conditions: HBCx-10, Breast (Triple negative); 0.3 mg/kg vs vehicle
Description: as §4

CTG-052 = experiment: PDX model; assay type: in vivo; conditions: CTG-052, Breast (Triple negative); 0.3 mg/kg vs vehicle
Description: as §4

B1: E02-GL: germlined ZY0EQD-E02, VH SEQ ID NO: 45, VL SEQ ID NO: 34; antibody intermediate of E02-GL-SG3932 (antibody, V domains shown)
VH: QVQLQQWGAGLLKPSETLSLACTVYGGSFSGYYWNWIRQPPGKGLEWIGEINHSGSTSYNPSLKSRVTISVDTSKNQFSLKLSSVTAADTAVYYCARVLYNWNVDSWGQGTLVTVSS
VL: DIQMTQSPSSLSASVGDRVTITCRASQDIRNDVGWYQQKPGKAPKRLIYAASRLQSGVPSRFSGSGSGTEFTLTISSLQPEDFATYYCLQHNSYPRTFGQGTKVEIK
cellular binding [1]: bound
cellular binding [2]: bound; also recorded: reduced compared to cells expressing human or cynomolgus monkey B7-H4
cellular binding [3]: did not bind
cellular binding [4]: bound
cellular binding (MX-1 cells): bound
binding to B7-H4 expressed on cancer cells (SK-BR-3 cells): superior binding
binding to B7-H4 expressed on cancer cells [5]: superior binding
E02-GL MESF (HCC1569): 112,608 MESF
internalization half-life (HT29-huB7-H4 Clone 26): 127 (±35 SD) minutes
internalization half-life (MX-1): 102 (±18 SD) minutes

B2: E02-GL-SG3249: clone E02-GL (Maia heavy chain backbone) conjugated to the PBD cytotoxin SG3249 (conjugate)
heavy: QVQLQQWGAGLLKPSETLSLACTVYGGSFSGYYWNWIRQPPGKGLEWIGEINHSGSTSYNPSLKSRVTISVDTSKNQFSLKLSSVTAADTAVYYCARVLYNWNVDSWGQGTLVTVSSASTKGPSVFPLAPSSKSTSGGTAALGCLVKDYFPEPVTVSWNSGALTSGVHTFPAVLQSSGLYSLSSVVTVPSSSLGTQTYICNVNHKPSNTKVDKRVEPKSCDKTHTCPPCPAPELLGGPSCVFLFPPKPKDTLMISRTPEVTCVVVDVSHEDPEVKFNWYVDGVEVHNAKTKPREEQYNSTYRVVSVLTVLHQDWLNGKEYKCKVSNKALPAPIEKTISKAKGQPREPQVYTLPPSREEMTKNQVSLTCLVKGFYPSDIAVEWESNGQPENNYKTTPPVLDSDGSFFLYSKLTVDKSRWQQGNVFSCSVMHEALHNHYTQKSLSLSPGK
light: DIQMTQSPSSLSASVGDRVTITCRASQDIRNDVGWYQQKPGKAPKRLIYAASRLQSGVPSRFSGSGSGTEFTLTISSLQPEDFATYYCLQHNSYPRTFGQGTKVEIKRTVAAPSVFIFPPSDEQLKSGTASVVCLLNNFYPREAKVQWKVDNALQSGNSQESVTEQDSKDSTYSLSSTLTLSKADYEKHKVYACEVTHQGLSSPVTKSFNRGEC
gamma H2AX positive tumour cells (HCC1954 tumour xenograft): Increased numbers of gamma H2AX positive tumour cells
% Tumour Growth Inhibition (TGI) (T330): 70%
% Tumour Growth Inhibition (TGI) (CTG-0992): 0%
% Tumour Growth Inhibition (TGI) (HBCx-9): 70%
% Tumour Growth Inhibition (TGI) (CTG-012): 90%
% Tumour Growth Inhibition (TGI) (T272): 30%
% Tumour Growth Inhibition (TGI) (CTG-1106): 30%
% Tumour Growth Inhibition (TGI) (HBCx-11): 80%
% Tumour Growth Inhibition (TGI) (CTG-1086): 20%
% Tumour Growth Inhibition (TGI) (T168): 60%
% Tumour Growth Inhibition (TGI) (HBCx-10): 90%
% Tumour Growth Inhibition (TGI) (CTG-052): 30%
